Data from publication PMC9440762, “Anti-Stokes fluorescence excitation reveals conformational mobility of the C-phycocyanin chromophores” (Structural Dynamics, 2022).

T1: C-phycocyanin β subunit from Arthrospira platensis (Arthrospira platensis (Spirulina), UniProt P72508 1-172, phycocyanobilin covalently bound to the cysteines at positions 82 and 153)
T1 construct: C-phycocyanin β subunit, Arthrospira platensis (Spirulina); also called β C-PC chain
T1 sequence (looked up): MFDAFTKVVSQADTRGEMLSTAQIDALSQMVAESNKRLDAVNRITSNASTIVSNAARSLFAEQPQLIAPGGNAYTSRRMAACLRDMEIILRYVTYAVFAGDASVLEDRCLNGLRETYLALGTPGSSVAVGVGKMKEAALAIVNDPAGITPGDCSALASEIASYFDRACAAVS


Key:
[1] = biological target: T1, C-phycocyanin β subunit from …; experiment: SEC; preparative Superdex 200 26/600, 20 mM Tris-HCl pH 7.6, 150 mM NaCl; fractions of the main peak analysed by SDS-PAGE; conditions: both partners purified
[2] = biological target: the molecule itself; experiment: SAXS; C-PC in solution at 150 mM NaCl; fits with trimer and hexamer models, MW estimate, ab initio shape by GASBOR; also at 4, 6 and 8 M urea (decrease in the oligomeric state, partial dissociation of trimers)

binding result [1]	Binder	stoichiometry N [2]
binds	C-phycocyanin α subunit from Arthrospira platensis (natural protein, phycocyanobilin covalently bound to the cysteine at position 84, C-phycocyanin α subunit, Arthrospira platensis (Spirulina); also called α C-PC chain) not shown	–
–	C-phycocyanin αβ monomer (heterodimer of the α and β subunits) from Arthrospira platensis (complex, phycocyanobilin covalently bound to the cysteine at position 84 | phycocyanobilin covalently bound to the cysteines at positions 82 and 153, C-phycocyanin α subunit, Arthrospira platensis (Spirulina); band of apparent MW 16 or 18 kDa on SDS-PAGE; C-phycocyanin β subunit, Arthrospira platensis (Spirulina); The unit that associates with itself into the (αβ)3 trimer; Linker polypeptides are absent from the preparation; also called C-PC; PC) chain 1: not shown chain 2: MFDAFTKVVSQADTRGEMLSTAQIDALSQMVAESNKRLDAVNRITSNASTIVSNAARSLFAEQPQLIAPGGNAYTSRRMAACLRDMEIILRYVTYAVFAGDASVLEDRCLNGLRETYLALGTPGSSVAVGVGKMKEAALAIVNDPAGITPGDCSALASEIASYFDRACAAVS	3
